Results published in publication doi:10.1101/2025.09.24.678203 (bioRxiv, 2025).

T1: T. brucei canonical histone H2A (T. brucei brucei, UniProt Q57YA3 2-134)
T1 construct: Canonical histone H2A of Trypanosoma brucei brucei, Tb927.7.2820, pET21a plasmid from the Janzen lab; also called Tb H2A
T1 sequence: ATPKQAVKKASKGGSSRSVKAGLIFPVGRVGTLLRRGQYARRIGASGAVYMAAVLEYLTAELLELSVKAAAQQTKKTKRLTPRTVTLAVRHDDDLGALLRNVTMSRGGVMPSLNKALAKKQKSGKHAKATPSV

B1: T. brucei canonical histone H4 (natural protein)
chain: not shown
notes: Canonical histone H4 of Trypanosoma brucei brucei, Tb927.5.4170, pET21a plasmid from the Janzen lab; also called Tb H4
B2: T. brucei canonical histone H2B (natural protein, T. brucei brucei)
chain: ATPKSTPAKTRKEAKKTRRQRKRTWNVYVSRSLRSINSQMSMTSRTMKIVNSFVNDLFERIAAEAATIVRVNRKRTLGARELQTAVRLVLPADLAKHAMAEGTKAVSHASS
notes: Canonical histone H2B of Trypanosoma brucei brucei, Tb927.10.10480, pET21a plasmid from the Janzen lab; also called Tb H2B

Key:
[1] = molecular target: T2, T. brucei canonical histone H3 (T. brucei brucei, UniProt Q4GYX7 2-133); assay: in vitro reconstitution of histone octamers and nucleosomes (SEC, native PAGE, SDS-PAGE); purified histones combined at a 1.2:1.2:1:1 H2A:H2B:H3(V):H4(V) molar ratio, dialysed into 2 M NaCl Octamer Buffer, octamers purified on Superdex200; wrapped with Widom 601 145 bp, Widom 603 177 bp or Widom 603 193 bp DNA by salt gradient dialysis; checked by native and SDS PAGE; conditions: both partners purified
T2 construct: Canonical histone H3 of Trypanosoma brucei brucei, Tb927.1.2430, pET21a plasmid from the Janzen lab; also called Tb H3

[2] = molecular target: T1, T. brucei canonical histone H2A; assay: cryo-EM structure; H3.V-H4.V NCP (H2A, H2B, H3.V, H4.V) wrapped with Widom 601 145 bp DNA, crosslinked with 0.05% glutaraldehyde, separated by SEC; grids in 10 mM Tris pH 8.0, 30 mM NaCl, 1 mM EDTA, 1 mM DTT; global resolution 3.2 Å; conditions: both partners purified

Binder	binding result [1]	binding result [2]
B1	binds	
B2		binds
